Reference: PMC4943160
Numbering of substitutions follows the chain as printed.

Columns and labels:
[1] = target: T1, rCosRWT (Campylobacter jejuni NCTC 11168) (UniProt Q0PBF4); assay: EMSA
T1 sequence: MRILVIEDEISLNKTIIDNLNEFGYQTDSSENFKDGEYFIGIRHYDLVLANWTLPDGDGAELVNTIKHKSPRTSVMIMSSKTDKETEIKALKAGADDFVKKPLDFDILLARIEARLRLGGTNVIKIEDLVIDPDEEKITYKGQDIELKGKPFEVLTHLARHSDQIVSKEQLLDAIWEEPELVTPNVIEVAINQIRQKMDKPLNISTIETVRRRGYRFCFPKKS

[2] = target: T2, rCosRC218S C218S (Campylobacter jejuni NCTC 11168) (UniProt Q0PBF4); assay: EMSA
T2 sequence: T1 sequence with C218S

Sequence | binding [1] | binding [2]
AATCCTTGCTTGCATTTTCGAAAGTTGCCTTAGCCATTAAAGCTTGTCCGTAAGCTGAATCAACACTAGCTTTAAATTTATCTTGTTCTATAATAAATAATGTTTGTCCTTTTTTTACCTTATCTCCAGCTTTAAAAAGTTTATTTACTATTACGCCGCTAACTTGAGGTT (double strand) [cmeA internal fragment] | no binding | 
GCACAACACCTAAAGCTAAAATAGTATTTTTTTGAAATAATTTCATGGTTTTGCCTTGAAAAATTAAATTAAAAATTGTAATATTTATTACAGAAATTTTTGGCTAATTATATCTTAATTTTGGTTAATAAAATTATTTTTTAAGCTTTGGAGCTATTGATTCCATTTAG (double strand) [81-176 cmeABC promoter] |  | binds
GCACAACACCTAAAGCTAAAATAGTATTTTTTTGAAATAATTTCATGGTTTTGCCTTGAAAAATTAAATTAAAAATTGTAATTTTTATTACAAAAATTTTTGGCTAATTATATCTTAATTTTGGTTAATAAAATTATTTTTTAAGCTTTGGAGCTATTGATTCCATTTAG (double strand) [11168 cmeABC promoter] | binds | 
